Test results as given in IntAct's records for PubMed 17357085.

B1: Homeobox protein SIX5 (Homo sapiens), Q8N196 (parent)
chain: MATLPAEPSAGPAAGGEAVAAAAATEEEEEEARQLLQTLQAAEGEAAAAAGAGAGAAAAGAEGPGSPGVPGSPPEAASEPPTGLRFSPEQVACVCEALLQAGHAGRLSRFLGALPPAERLRGSDPVLRARALVAFQRGEYAELYRLLESRPFPAAHHAFLQDLYLRARYHEAERARGRALGAVDKYRLRKKFPLPKTIWDGEETVYCFKERSRAALKACYRGNRYPTPDEKRRLATLTGLSLTQVSNWFKNRRQRDRTGAGGGAPCKSESDGNPTTEDESSRSPEDLERGAAPVSAEAAAQGSIFLAGTGPPAPCPASSSILVNGSFLAASGSPAVLLNGGPVIINGLALGEASSLGPLLLTGGGGAPPPQPSPQGASETKTSLVLDPQTGEVRLEEAQSEAPETKGAQVAAPGPALGEEVLGPLAQVVPGPPTAATFPLPPGPVPAVAAPQVVPLSPPPGYPTGLSPTSPLLNLPQVVPTSQVVTLPQAVGPLQLLAAGPGSPVKVAAAAGPANVHLINSGVGVTALQLPSATAPGNFLLANPVSGSPIVTGVALQQGKIILTATFPTSMLVSQVLPPAPGLALPLKPETAISVPEGGLPVAPSPALPEAHALGTLSAQQPPPAAATTSSTSLPFSPDSPGLLPNFPAPPPEGLMLSPAAVPVWSAGLELSAGTEGLLEAEKGLGTQAPHTVLRLPDPDPEGLLLGATAGGEVDEGLEAEAKVLTQLQSVPVEEPLEL
partner: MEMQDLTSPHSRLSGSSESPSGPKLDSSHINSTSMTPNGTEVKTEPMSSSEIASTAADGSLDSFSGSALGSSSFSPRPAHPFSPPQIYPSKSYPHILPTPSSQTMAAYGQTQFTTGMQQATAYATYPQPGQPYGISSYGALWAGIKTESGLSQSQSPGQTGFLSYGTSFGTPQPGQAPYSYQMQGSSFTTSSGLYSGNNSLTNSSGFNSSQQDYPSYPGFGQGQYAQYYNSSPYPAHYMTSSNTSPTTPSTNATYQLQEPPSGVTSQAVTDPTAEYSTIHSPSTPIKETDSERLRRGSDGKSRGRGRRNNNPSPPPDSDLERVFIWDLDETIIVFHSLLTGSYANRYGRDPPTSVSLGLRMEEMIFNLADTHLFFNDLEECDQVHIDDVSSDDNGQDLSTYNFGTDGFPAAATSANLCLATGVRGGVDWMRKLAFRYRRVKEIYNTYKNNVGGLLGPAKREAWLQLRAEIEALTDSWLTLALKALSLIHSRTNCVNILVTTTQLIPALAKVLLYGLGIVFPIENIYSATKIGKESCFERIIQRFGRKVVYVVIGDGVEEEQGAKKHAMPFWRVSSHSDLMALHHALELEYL

Variants of: B1
Details: with eya1_mouse Eya1, P97767

Row | effect of a mutation on the interaction | Variant
1 | decreasing interaction | T552M
2 | decreasing interaction | A158T
